Results as given in patent US20100028924A1, “Method Of Diagnosing Pon1-Hdl Associated Lipid Disorders” (Rappaport Family Institute Research in the Medical Sciences, priority 2006, published 2010).
Where a chain is given by its changes, count along the chain named.

B1: wt Δ20-rePON1-192K: truncated rePON1 variant lacking the first 20 amino acids of the hydrophobic N-terminus, 192K (protein)
chain: MAKSSFQTRFNVHREVTPVELPNCNLVKGVDNGSEDLEILPNGLAFISSGLKYPGIMSFDPDKSGKILLMDLNEEDPVVLELGITGNTLDISSFNPHGISTFTDEDNTVYLLVVNHPDSSSTVEVFKFQEEEKSLLHLKTIRHKLLPSVNDIVAVGPEHFYATNDHYFADPYLKSWEMHLGLAWSFVTYYSPNDVRVVAEGFDFANGINISPDGKYVYIAELLAHKIHVYEKHANWTLTPLKSLDFDTLVDNISVDPVTGDLWVGCHPNGMRIFYYDPKNPPGSEVLRIQDILSEEPKVTVVYAENGTVLQGSTVAAVYKGKLLIGTVFHKALYCEL
modifications: Delta20-rePON1-192K isozyme
notes: truncated rePON1 variant lacking the first 20 amino acids of the hydrophobic N-terminus, 192K
B2: Δ20-rePON1-192R: truncated rePON1 variant lacking the first 20 N-terminal amino acids, 192R isozyme (protein)
chain: B1 chain with K174R
modifications: Delta20-rePON1-192R isozyme
notes: truncated rePON1 variant lacking the first 20 N-terminal amino acids, 192R isozyme
B3: Δ20-rePON1-192Q: truncated rePON1 variant lacking the first 20 N-terminal amino acids, 192Q isozyme (protein)
chain: B1 chain with K174Q
modifications: Delta20-rePON1-192Q isozyme
notes: truncated rePON1 variant lacking the first 20 N-terminal amino acids, 192Q isozyme
B4: rePON1-192Q: recombinant PON1 with glutamine at position 192, generated to mimic the human Q isozyme (protein)
chain: MAKLTALTLLGLGLALFDGQKSSFQTRFNVHREVTPVELPNCNLVKGVDNGSEDLEILPNGLAFISSGLKYPGIMSFDPDKSGKILLMDLNEEDPVVLELGITGNTLDISSFNPHGISTFTDEDNTVYLLVVNHPDSSSTVEVFKFQEEEKSLLHLKTIRHKLLPSVNDIVAVGPEHFYATNDHYFADPYLQSWEMHLGLAWSFVTYYSPNDVRVVAEGFDFANGINISPDGKYVYIAELLAHKIHVYEKHANWTLTPLKSLDFDTLVDNISVDPVTGDLWVGCHPNGMRIFYYDPKNPPGSEVLRIQDILSEEPKVTVVYAENGTVLQGSTVAAVYKGKLLIGTVFHKALYCEL
modifications: rePON1-192Q isozyme
notes: recombinant PON1 with glutamine at position 192, generated to mimic the human Q isozyme
B5: rePON1-192R: recombinant PON1 with arginine at position 192, generated to mimic the human R isozyme (protein)
chain: B4 chain with Q192R
modifications: rePON1-192R isozyme
notes: recombinant PON1 with arginine at position 192, generated to mimic the human R isozyme

Legend:
apoA-I rHDL [1] = experiment: Inactivation kinetics of rePON1 192 isozymes bound to rHDL-apoA-I (EDTA/β-mercaptoethanol, residual phenyl acetate hydrolysis); type: biochemical; settings: for A2 (amplitude) (%): as printed in Table 2 beside the SPR constants of the Δ20 variants; for A2 (%) (amplitude of second, slow inactivation phase = HDL-bound fraction) / k1^inactiv (first, fast phase) / k2^inactiv (second, slow phase): apoA-I rHDL, 50-fold molar excess, EDTA and β-mercaptoethanol, 37° C.
Protocol: (§1) FIG. 1 is a graph showing the inactivation kinetics of the wild-type rePON1-192K (SEQ ID NO:2), -192R (SEQ ID NO:4) and -192Q (SEQ ID NO:6) isozymes, bound to rHDL-apoA-I, or in buffer. Delipidated enzymes were incubated with a 50-fold excess of rHDL-apoA-I, or in activity buffer, and subjected to inactivation in the presence of EDTA (5 mM) and β-mercaptoethanol (10 mM) at 37° C. Residual activity at various time points was determined by initial rates of phenyl acetate hydrolysis (2 mM) and plotted as percent of the activity at time zero. Data were fitted to a single exponential for wild-type rePON1-192K on rHDL-apoA-I, and to double-exponentials for the remaining samples. The inactivation rate constants and amplitudes were derived from this fit;
(§2) Inactivation rates of rePON1s were measured as described [Gaidukov, L. and D. S. Tawfik, Biochemistry, 2005. 44(35): p. 11843-54]. Briefly, rePON1 samples were delipidated using Bio-Beads SM-2 (BioRad) and incubated in buffer, or with 50-fold molar excess of rHDL-apoA-I. EDTA (10 mM) and β-mercaptoethanol (20 mM) were added, and samples were incubated at 37° C. Residual activity at different time points was determined with 2 mM phenyl acetate, and inactivation rates were fitted to either mono- or double-exponentials [Gaidukov, L. and D. S. Tawfik, Biochemistry, 2005. 44(35): p. 11843-54].
(§3) The resultant inactivation profiles of wt rePON1 (SEQ ID NO: 2), rePON1-192Q (SEQ ID NO: 6) and rePON1-192R (SEQ ID NO: 4), were fitted to exponential curves as illustrated in FIG. 1.

apoA-I rHDL [2] = experiment: Surface plasmon resonance binding of Δ20-rePON1 192 isozymes to immobilized rHDL-apoA-I; settings: for Kd / koff / kon: SPR, 25° C., biotinylated rHDL-apoA-I on streptavidin chip
Protocol: FIGS. 2A-C are sensorgrams for the binding of wt Δ20-rePON1-192K—SEQ ID NO:8 (FIG. 2A), Δ20-rePON1-192R—SEQ ID NO:10 (FIG. 2B) and Δ20-rePON1-192Q—SEQ ID NO:12 (FIG. 2C) isozymes to rHDL-apoA-I. Biotinylated rHDL-apoA-I particles were immobilized onto the streptavidin surface (SA chip), and a series of PON1 concentrations were injected over the immobilized and blank surfaces to obtain the net binding response. Binding was performed at 25° C. Association and dissociation phases were fitted to a single exponential, from which kinetic rate constants were derived. PON1 concentrations in all the sensorgrams are (from bottom to top) 25, 40, 60, 80, 100, 150 and 200 nM;
Surface plasmon resonance (SPR) measurements: rHDL-apoA-I particles containing 0.7% of N-biotinyl-dipalmitoylphosphatidylethanolamine (N-biotynyl-DPPE; Avanti Polar Lipids) were prepared and purified as described [Gaidukov, L. and D. S. Tawfik, Biochemistry, 2005. 44(35): p. 11843-54]. SPR was performed on BIAcore 3000 (Uppsala, Sweden) as described [Gaidukov, L. and D. S. Tawfik, Biochemistry, 2005. 44(35): p. 11843-54]. Briefly, the biotinylated rHDL particles were adsorbed on streptavidin (SA5) chip, and Δ20-rePON1 isozymes were injected over the immobilized and blank surfaces to obtain the net binding response. Binding rate constants were obtained by fitting of association and dissociation phases to single exponentials as described [Gaidukov, L. and D. S. Tawfik, Biochemistry, 2005. 44(35): p. 11843-54].
The above results were further supported by affinity measurements using surface plasmon resonance. It was previously shown that HDL affinity of the intact rePON1 is very high (sub-nanomolar) and could not be determined accurately using surface plasmon resonance [Gaidukov, L., and Tawfik, D. S. (2005)Biochemistry 44, 11843-11854]. In contrast, binding affinity of the truncated variant lacking the first 20 amino acids of the hydrophobic N-terminus (Δ20-rePON1) could be amply determined. Therefore, the truncated variants of PON1 192 isozymes were prepared and their HDL binding affinities measured. Typical binding sensorgrams between Δ20-rePON1 isozymes and the immobilized HDL particles are portrayed in FIGS. 2A-C, and the derived rate and affinity constants are summarized in Table 2 herein below.

[3] = Inactivation kinetics of rePON1 192 isozymes in activity buffer; type: biochemical; settings: EDTA and β-mercaptoethanol, 37° C.
Protocol: as §1, §2, §3

apoA-I rHDL [4] = experiment: Stimulation of enzymatic activity of rePON1 192 isozymes by rHDL-apoA-I; type: biochemical; settings: for reduction of Vmax compared to wt rePON1-192K: all the substrates tested; for Vmax (%) activation factor: relative to delipidated enzyme (100%)
Excerpt: The activity is presented in relation to the initial activity of the delipidated enzymes (percentage of stimulation). Data were fitted to the Langmuir saturation curve, from which the activation factor (Vmax) and the apparent affinity (Kapp) were derived;
Stimulated activity is presented as the percentage of the initial activity of the delipidated enzymes (corresponds to 100%). Data were fitted to the Langmuir saturation curve, from which the activation factor (Vmax) and the apparent affinity (Kapp) were derived;
Delipidated rePONs at 0.2 μM were incubated with a range of rHDL concentrations (0.1-10 μM) for 3 hrs at 37° C. Enzymatic activity was determined in activity buffer (50 mM Tris pH 8.0, 1 mM CaCl2) with substrates at 1 mM concentrations as described [Gaidukov, L. and D. S. Tawfik, Biochemistry, 2005. 44(35): p. 11843-54]. 5-(thiobutyl)-butyrolactone (TBBL) was applied at 0.25 mM, and product formation was monitored spectrophotometrically at 412 nm using 5,5′-dithio-bis-2-nitrobenzoic acid (DTNB) as described [Khersonsky, O. and D. S. Tawfik, Chembiochem, 2006. 7(1): p. 49-53].
Stimulation of the enzymatic activity was examined by incubating rePON1 isozymes with a range of rHDL concentrations (at the HDL/PON ratio of 0.5-50), and measuring the catalytic activity with various substrates as detailed hereinabove. FIGS. 3A-B illustrate the enzymatic activity of the rePON1 isozymes with δ-nonanoic lactone as substrate (FIG. 3A) and thiobutyl butiryl lactone (TBBL) as substrate (FIG. 3B). FIGS. 4A-D illustrate the enzymatic activity of the rePON1 isozymes with γ-dodecanoic lactone as substrate (FIG. 4A), δ-valerolactone as substrate (FIG. 4B), phenyl acetate as substrate (FIG. 4C) and paraoxon as substrate (FIG. 4D). Data were fitted to the Langmuir saturation curve to give the activation factor Vmax (in percent relative to the delipidated PON1) and the apparent affinity Kapp.

[5] = substrate γ-dodecanoic lactone 1 mM
[6] = substrate δ-nonanoic lactone 1 mM

Molecule	A2 (amplitude) (%) (apoA-I rHDL [1])	Kd (apoA-I rHDL [2]) [nM]	koff (apoA-I rHDL [2])	kon (apoA-I rHDL [2])	k1^inactiv (first, fast phase) [3] [h⁻¹]	k2^inactiv (second, slow phase) [3] [h⁻¹]	reduction of Vmax compared to wt rePON1-192K (apoA-I rHDL [4])	Kapp (apparent affinity for HDL stimulation) (apoA-I rHDL [4]; substrate TBBL 0.25 mM) [µM]	Vmax (%) activation factor (apoA-I rHDL [4]; substrate TBBL 0.25 mM) [%]	Vmax (%) activation factor (apoA-I rHDL [4]; substrate paraoxon 1 mM) [%]	Kapp (apparent affinity for HDL stimulation) (apoA-I rHDL [4]; substrate phenyl acetate 1 mM) [µM]	Vmax (%) activation factor (apoA-I rHDL [4]; substrate phenyl acetate 1 mM) [%]	Kapp (apparent affinity for HDL stimulation) (apoA-I rHDL [4]; [5]) [µM]	Vmax (%) activation factor (apoA-I rHDL [4]; [5]) [%]	Kapp (apparent affinity for HDL stimulation) (apoA-I rHDL [4]; [6]) [µM]	Vmax (%) activation factor (apoA-I rHDL [4]; [6]) [%]	Kapp (apparent affinity for HDL stimulation) (apoA-I rHDL [4]; substrate δ-valerolactone 1 mM) [µM]	Vmax (%) activation factor (apoA-I rHDL [4]; substrate δ-valerolactone 1 mM) [%]	A2 (%) (amplitude of second, slow inactivation phase = HDL-bound fraction) (apoA-I rHDL [1])	k1^inactiv (first, fast phase) (apoA-I rHDL [1]) [h⁻¹]	further results
B1	100	100	(2.0 ± 0.2) × 10^−2 s^−1	(2.0 ± 0.3) × 10^5 s^−1 M^−1	–	–	–	–	–	–	–	–	–	–	–	–	–	–	–	–	fold higher HDL binding affinity than the Q isozyme (apoA-I rHDL [2]; relative to the Q isozyme): 3 fold
B2	90	110	(2.9 ± 0.2) × 10^−2 s^−1	(2.6 ± 0.3) × 10^5 s^−1 M^−1	–	–	–	–	–	–	–	–	–	–	–	–	–	–	–	–	–
B3	70	300	(4.2 ± 0.2) × 10^−2 s^−1	(1.4 ± 0.5) × 10^5 s^−1 M^−1	–	–	–	–	–	–	–	–	–	–	–	–	–	–	–	–	–
B4	–	–	–	–	5.2	0.3	50-80%	0.5 ± 0.1	340 ± 4	128 ± 1	0.8 ± 0.1	165 ± 1	0.6 ± 0.2	382 ± 20	0.6 ± 0.1	778 ± 12	1.1 ± 0.1	481 ± 7	70	1.1	k2^inactiv (second, slow phase) (apoA-I rHDL [1]): 0.01 h⁻¹
B5	–	–	–	–	5.5	0.2	10-30%	0.4 ± 0.1	579 ± 6	200 ± 1	0.8 ± 0.1	336 ± 4	0.9 ± 0.1	1258 ± 21	1.5 ± 0.1	1351 ± 20	1.1 ± 0.1	1403 ± 13	90	0.9	k2^inactiv (second, slow phase) (apoA-I rHDL [1]): 0.01 h⁻¹
